Positions count from the first letter of the chain named.
B1: anti-human c-Mpl agonist antibody 6-5-2 (IgG1) (antibody, V domains shown)
VH: EVQLVECGGGLVQPGRSLRLSCAASGFTFDDYAMHWVRQAPGKGLEWVSGISWNSGSIGYADSVKGRFTISRDNAKNSLYLQMNSLRAEDTALYYCAKPIWFGEWGNYYGMDVWGQGTTVTVSS
VL: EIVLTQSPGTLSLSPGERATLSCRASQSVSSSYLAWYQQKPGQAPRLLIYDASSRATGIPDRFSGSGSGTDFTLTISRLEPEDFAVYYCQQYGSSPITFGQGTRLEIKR
B2: anti-human c-Mpl agonist antibody 7-10 (IgG1) (antibody, V domains shown)
VH: EVQLVESGGGLVQPGRSLRLSCAASGFTFDDYAMHWVRQAPGKGLEWVSGISWNSGSIGYADSVKGRFTISRDNAKNSLYLQMNSLRAEDTALYYCAKNLWFGEFRYWYFDLWGRGTLVTVSS
VL: AIQLTQSPSSLSASVGDRVTITCRASQGISSALAWYQQKPGKAPKLLIYDASSLESGVPSRFSGSGSGTDFTLTISSLQPEDFATYYCQQFNSYPLTFGGGTKVEIK
B3: 7-10G4344uhm light chain mutant 7-10VL_Y94F (antibody, V domains shown)
VH: B2 VH
VL: B2 VL with Y94F
notes: Human kappa constant region; also called CDR substitution product
B4: 7-10G4344uhm light chain mutant 7-10VL_A43V (antibody, V domains shown)
VH: B2 VH
VL: B2 VL with A43V
notes: Mutant light chain combined with the heavy chain of 7-10G4344uhm; human kappa constant region; also called 6-4-50VL substitution product 2
B5: anti-human c-Mpl agonist antibody 4-49 (IgG1) (antibody, V domains shown)
VH: EEQLVESGGGLVQPGRSLRLSCTASGFTFDDYAMYWVRQVPGKGLEWVSGISWNSGSIGYADSVKGRFTVSRDNAKNSLYLQMNSLRAEDTALYYCAKALWFGEFPHYYGMDVWGQGTTVTVSS
VL: AIQLTQSPSSLSASVGDRVTITCRASQGISSTLAWYQQKPGKAPKLLIYDASSLESGVPSRFSGSGSGTDFTLTISSLQPEDFATYYCQQFNSYPYTFGQGTKLEIKR
B6: anti-human c-Mpl agonist antibody 6-4-50 (IgG1) (antibody, V domains shown)
VH: EVQLVESGGGLVQPGRSLRLSCATSGFTFDNYAMYWVRQAPGKGLEWVSGISWNSGDIGYADSVKGRFTISRDNAKNSLYLQMNSLRAEDTALYYCARDAGFGEFHYGLDVWGQGTTVTVSS
VL: B5 VL with T32A, A43V, Y96W, L104V

Experiments:
[1] = target: T1, human thrombopoietin receptor (human c-Mpl) (human, UniProt P40238 26-635); test: cell-based or functional assay
T1 sequence (looked up): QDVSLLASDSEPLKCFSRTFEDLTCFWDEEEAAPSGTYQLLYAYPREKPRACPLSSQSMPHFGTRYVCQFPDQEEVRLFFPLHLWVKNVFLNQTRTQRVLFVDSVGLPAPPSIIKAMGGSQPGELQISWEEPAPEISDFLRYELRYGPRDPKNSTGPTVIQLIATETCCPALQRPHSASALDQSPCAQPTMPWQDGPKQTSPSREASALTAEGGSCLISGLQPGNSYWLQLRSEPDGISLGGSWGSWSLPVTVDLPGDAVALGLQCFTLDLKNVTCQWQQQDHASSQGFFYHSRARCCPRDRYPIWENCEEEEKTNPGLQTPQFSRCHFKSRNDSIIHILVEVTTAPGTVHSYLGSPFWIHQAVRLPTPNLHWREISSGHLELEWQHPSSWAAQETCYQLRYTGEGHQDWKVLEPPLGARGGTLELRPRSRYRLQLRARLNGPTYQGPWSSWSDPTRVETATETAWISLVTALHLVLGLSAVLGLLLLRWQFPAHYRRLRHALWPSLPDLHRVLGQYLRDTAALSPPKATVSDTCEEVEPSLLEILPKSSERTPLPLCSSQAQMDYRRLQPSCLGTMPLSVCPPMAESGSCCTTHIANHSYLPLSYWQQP

[2] = target: T1, human thrombopoietin receptor (human …); test: cell-based or functional assay; remark: listed apart in the source
[3] = target: T1, human thrombopoietin receptor (human …); test: flow cytometry on FM3A-hMpl cells
Method: The binding activity of the anti-human c-Mpl antibodies was assayed by flow cytometry using the hybridoma culture supernatants or purified antibodies in the following manner. The FM3A-hMpl cells or human Mpl expressing FDCP2 cells (FDCP-hMpl) (FEBS, Lett., Oct. 21, 1996, 395 (2-3): 228-34) were used.
Cells (4×10⁵ cells) were suspended in 50 μl of FACS staining medium (2% FBS, 0.1% NaN₃, 1 mM EDTA in PBS) per reaction, 50 μl of the hybridoma culture supernatant or purified human antibody solution (final concentration: 0.1-1 μg/ml) was added, and the reaction was carried out on ice for 30 minutes. After the washing with FACS staining medium, a secondary antibody, the R-phycoerythrin (RPE) labeled goat anti-human Igγ F(ab′) antibody (Cat#2043-09, Southern Biotechnology), was added, and the reaction was carried out again on ice under the light-shielded conditions for 30 minutes, followed by washing again. The cells were suspended in a propidium iodide (PI)-containing FACS staining medium in order to analying binding activities of the antibodies. The analysis was made using the FACS Calibur (Becton Dickinson).
The concentrations of antibodies were prepared at 1, 0.1, and 0.01 μg/ml, and flow cytometry was carried out using FM3A-hMpl cells. The experiment was carried out in accordance with the method described in Example 4. […]

Row | Binder | UT7/TPO (Max) [1] [%] | further results
1 | B1 | > 50 | –
2 | B2 | > 90 | –
3 | B3 | – | agonistic activity relative to the original 7-10G4344uhm [2]: ~0.1 fold of the original level; binding activity relative to the original 7-10G4344uhm [3]: ~0.1 fold of the original level
4 | B4 | – | binding result [3]: binds
5 | B5 | > 80 | –
6 | B6 | > 80 | –
